Measured values reported in US11840563B2, “Methods of treating cancer by administering inhibitory RNA molecules targeting protease serine 2 (PRSS2) expression” (Children's Medical Center Corporation, priority 2017, dated 2023).
Blank lines part the entries; values can stand above or below the molecule they belong to.

How the values were obtained:
Tsp-1 [1] = test: Western blot of Tsp-1 in lung fibroblasts treated with LN4 CM alone or with STI or Rac1 inhibitor; assay type: cell-based; details: lung fibroblasts (W138 cells), co-treatment with LN4 conditioned media
Description: FIG. 11. Western blot analysis of Tsp-1 and β-actin expression in lung fibroblasts that were untreated (−) or treated with LN4 CM alone or in combination with STI.
FIG. 12. Western blot analysis of Tsp-1 and β-actin expression in lung fibroblasts that were untreated (−) or treated with LN4 CM alone or in combination with Rac1 inhibitor.
Attention was then turned to the mechanism by which PC3M-LN4 cells repress Tsp-1 in the tumor microenvironment. In doing so, LN4 conditioned media (CM) was fractionated over a Cu^2+/heparin sepharose column with increasing concentrations of NaCl. The eluted fractions were used to treat lung fibroblasts and Tsp-1 induction was analyzed by western blot. […] By analyzing the protein content of the eluted fractions by tandem liquid chromatography/mass spectrometry (LC/MS), a protein was identified that was present in the active fractions of LN4 CM, but not present in the adjacent fractions or the fractions eluted with the same NaCl concentrations from PC3 CM. The identified protein was the serine protease PRSS2. […] Finally, the signaling pathway emanating from LRP1 that was mediating the PRSS2-induced repression of Tsp-1 was sought to be delineated. […]

Tsp-1 [2] = test: Western blot of Tsp-1/p53 in prostate fibroblasts treated with PC3 conditioned media with or without RAP or PKC inhibitor; assay type: cell-based; details: co-treatment with inhibitor
Description: FIGS. 6A-6B. Western blot analysis of: (FIG. 6A) Tsp-1 and β-actin expression in prostate fibroblasts that were untreated (−) or treated with conditioned media from PC3 cells alone or in combination with RAP, and (FIG. 6B) Tsp-1, p53 and β-actin expression in prostate fibroblasts that were untreated (−) or treated with conditioned media from PC3 cells alone or in combination with the PKC inhibitor Go 6983 (PKCi).
Thus, in order to determine how prosaposin was able to stimulate the expression of Tsp-1 and p53 in tumor-associated fibroblasts, prostate fibroblasts were treated with PC3-conditioned media in the presence and absence of Receptor Associate Protein (RAP), a competitive inhibitor or LRP1 binding. […] To determine whether prosaposin-mediated stimulation of Tsp-1 utilized this pathway, fibroblasts were treated with CM from PC3 cells in the presence and absence of the PKC inhibitor Gö 6983. […] Thus, it is believed that Prosaposin functions via binding to LRP1.

Tsp-1 [3] = test: Western blot of Tsp-1 in lung fibroblasts treated with psap peptide alone or with rhRAP or Y27632; assay type: cell-based; details: co-treatment with peptide, rhRAP 25 or 50 μg
Description: FIGS. 8A-8B. Western blot analysis of Tsp-1 and β-actin expression in lung fibroblasts, which were (FIG. 8A) untreated (−) or treated with psap peptide alone or in combination with 25 or 50 μg of rhRAP, and (FIG. 8B) untreated (−) or treated with psap peptide alone or with Y27632.
In order to delineate the pathway leading from LRP1 to Tsp-1 stimulation by prosaposin, two pathways that have been reported to be stimulated by LRP1 under different conditions were chosen to be examined: Rho and Rac.

PRSS2 = PRSS2 (Homo sapiens, UniProt P07478); test: Co-immunoprecipitation of LRP1 peptides with PRSS2; assay type: binding
Description: (§1) FIGS. 16A-16B. Co-immunoprecipitation of LRP1 peptides with PSAP (FIG. 16A) or PRSS2 (FIG. 16B).
(§2) To map the binding sites on LRP1 that binds to prosaposin (PSAP) and/or PRSS2, peptides derived from binding domain I of LRP1 (SEQ ID NOs: 3 and 7-18) were tested for their ability to co-immunoprecipitate with PSAP or PRSS2.

prosaposin (PSAP) = target: T1, prosaposin (PSAP) (Homo sapiens, UniProt P07602); test: Co-immunoprecipitation of LRP1 peptides with PSAP; assay type: binding
T1 sequence (P07602 60-524): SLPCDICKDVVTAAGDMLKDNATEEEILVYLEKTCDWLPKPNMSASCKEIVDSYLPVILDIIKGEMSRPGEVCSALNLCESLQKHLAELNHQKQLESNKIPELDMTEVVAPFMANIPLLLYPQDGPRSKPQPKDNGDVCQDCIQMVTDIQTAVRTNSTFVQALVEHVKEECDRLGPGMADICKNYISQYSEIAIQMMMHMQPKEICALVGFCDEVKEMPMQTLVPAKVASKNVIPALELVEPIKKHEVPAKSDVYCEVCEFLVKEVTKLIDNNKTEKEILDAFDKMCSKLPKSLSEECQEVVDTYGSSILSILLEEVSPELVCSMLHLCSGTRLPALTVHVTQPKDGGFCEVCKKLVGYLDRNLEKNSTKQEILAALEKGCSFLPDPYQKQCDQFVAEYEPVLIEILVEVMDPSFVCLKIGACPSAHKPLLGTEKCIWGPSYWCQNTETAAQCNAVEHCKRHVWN
Description: as §1, §2

Chain of PRSS2 (P07478 16-247 limits assumed): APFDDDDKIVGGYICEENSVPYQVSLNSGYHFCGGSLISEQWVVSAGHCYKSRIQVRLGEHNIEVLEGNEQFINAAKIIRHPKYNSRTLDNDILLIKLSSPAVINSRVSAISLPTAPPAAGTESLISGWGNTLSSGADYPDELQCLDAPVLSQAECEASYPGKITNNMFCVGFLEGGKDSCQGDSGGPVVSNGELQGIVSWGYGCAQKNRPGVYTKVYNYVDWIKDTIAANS

Molecule: CCN(CC)CCCC(C)Nc1nc(C)cc(Nc2ccc3nc(C)cc(N)c3c2)n1 (racemic) [Rac1 inhibitor, reference compound]
effect on repression of Tsp-1 by LN4 CM (Tsp-1 [1]): Tsp-1 levels were restored to basal levels

Molecule: COc1ccc2c(c1)c(C1=C(c3c[nH]c4ccccc34)C(=O)NC1=O)cn2CCCN(C)C [Gö 6983]
stimulation of Tsp-1 by PC3-conditioned media (Tsp-1 [2]): abolished the stimulation
stimulation of p53 by PC3-conditioned media (Tsp-1 [2]): abolished the stimulation

Molecule: C[C@@H](N)[C@H]1CC[C@H](C(=O)Nc2ccncc2)CC1 [Peptide Y27632, Y27632, reference compound]
effect on stimulation of Tsp-1 by the psap peptide (Tsp-1 [3]): completely abrogated

binding to PRSS2 (co-immunoprecipitation) (PRSS2; listed as peptide 13): bind to both PRSS2 and PSAP
binding to PSAP (co-immunoprecipitation) (prosaposin (PSAP); listed as peptide 13): bind to both PRSS2 and PSAP
Molecule: FICGCVEGYLLQPDNRSCKAKN [Peptide 13]

binding to PRSS2 (co-immunoprecipitation) (PRSS2; listed as peptide 12): bind to both PRSS2 and PSAP
binding to PSAP (co-immunoprecipitation) (prosaposin (PSAP); listed as peptide 12): bind to both PRSS2 and PSAP
Molecule: YGTCSQLCTNTDGSFICGCVEGYLL [Peptide 12]

B1: STI: serine protease inhibitor able to inhibit all members of the trypsin family (protein, UniProt P01070 25-205, looked up)
Trypsin inhibitor A: DFVLDNEGNPLENGGTYYILSDITAFGGIRAAPTGNERCPLTVVQSRNELDKGIGTIISSPYRIRFIAEGHPLSLKFDSFAVIMLCVGIPTEWSVVEDLPEGPAVKIGENKDAMDGWFRLERVSDDEFNNYKLVFCPQQAEDDKCGDIGISIDHDDGTRRLVVSKNKPLVVQFQKLDKESL
effect on repression of Tsp-1 by LN4 CM (Tsp-1 [1]): completely abrogated the repression of Tsp-1

B2: RAP: Receptor Associate Protein (RAP), a competitive inhibitor or LRP1 binding (protein, UniProt P30533 35-357, looked up)
Alpha-2-macroglobulin …: YSREKNQPKPSPKRESGEEFRMEKLNQLWEKAQRLHLPPVRLAELHADLKIQERDELAWKKLKLDGLDEDGEKEARLIRNLNVILAKYGLDGKKDARQVTSNSLSGTQEDGLDDPRLEKLWHKAKTSGKFSGEELDKLWREFLHHKEKVHEYNVLLETLSRTEEIHENVISPSDLSDIKGSVLHSRHTELKEKLRSINQGLDRLRRVSHQGYSTEAEFEEPRVIDLWDLAQSANLTDKELEAFREELKHFEAKIEKHNHYQKQLEIAHEKLRHAESVGDGERVSRSREKHALLEGRTKELGYTVKKHLQDLSGRISRARHNEL
stimulation of Tsp-1 by PC3-conditioned media (Tsp-1 [2]): no longer stimulated Tsp-1
effect on stimulation of Tsp-1 by the psap peptide (Tsp-1 [3]): blocked the stimulation of Tsp-1 in a dose-dependent fashion
